Our source for the ka and kd values is article PMC4565748 (Molecular immunology, 2015).

The chains are these.
B1: SCIN-A: full-length staphylococcal complement inhibitor SCIN-A, Staphylococcus aureus strain Mu50 (protein)
chain: STSLPTSNEYQNEKLANELKSLLDELNVNELATGSLNTYYKRTIKISGQKAMYALKSKDFKKMSEAKYQLQKIYNEIDEALKSKY
B2: SCIN-A.R42A: full-length SCIN-A with Arg-42 alanine mutation (protein)
chain: B1 chain with R42A
B3: SCIN-A.Q49A (protein)
chain: B1 chain with Q49A

Substitutions are numbered along the chain they refer to. Names may count otherwise.

The test deals with C3b (Homo sapiens, UniProt P01024). Put plainly: SPR direct binding to site-specifically immobilized C3b. The settings on record: SPR kinetic analysis, 1:1 Langmuir model. In general terms: Surface plasmon resonance follows binding to a sensor surface in real time, without labels.
C3b, sequence (P01024 23-667 limits assumed): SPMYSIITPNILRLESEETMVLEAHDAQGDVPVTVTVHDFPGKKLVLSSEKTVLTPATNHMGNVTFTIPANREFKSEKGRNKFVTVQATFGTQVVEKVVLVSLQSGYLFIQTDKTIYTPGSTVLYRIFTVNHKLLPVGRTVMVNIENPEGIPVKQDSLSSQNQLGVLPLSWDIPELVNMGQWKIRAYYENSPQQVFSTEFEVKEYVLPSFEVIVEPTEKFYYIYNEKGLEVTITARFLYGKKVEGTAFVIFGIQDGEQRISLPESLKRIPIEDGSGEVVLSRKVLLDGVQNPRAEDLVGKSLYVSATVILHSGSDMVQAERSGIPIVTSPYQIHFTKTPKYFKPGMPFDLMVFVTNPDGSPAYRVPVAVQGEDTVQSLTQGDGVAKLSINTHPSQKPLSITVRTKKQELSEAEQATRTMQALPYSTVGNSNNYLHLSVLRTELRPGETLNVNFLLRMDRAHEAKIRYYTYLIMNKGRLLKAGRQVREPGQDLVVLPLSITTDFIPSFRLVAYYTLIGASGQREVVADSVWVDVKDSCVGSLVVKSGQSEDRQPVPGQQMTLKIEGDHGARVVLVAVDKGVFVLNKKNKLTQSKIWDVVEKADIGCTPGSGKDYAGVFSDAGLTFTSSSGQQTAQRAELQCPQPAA
C3b, sequence (P01024 749-1663 limits assumed): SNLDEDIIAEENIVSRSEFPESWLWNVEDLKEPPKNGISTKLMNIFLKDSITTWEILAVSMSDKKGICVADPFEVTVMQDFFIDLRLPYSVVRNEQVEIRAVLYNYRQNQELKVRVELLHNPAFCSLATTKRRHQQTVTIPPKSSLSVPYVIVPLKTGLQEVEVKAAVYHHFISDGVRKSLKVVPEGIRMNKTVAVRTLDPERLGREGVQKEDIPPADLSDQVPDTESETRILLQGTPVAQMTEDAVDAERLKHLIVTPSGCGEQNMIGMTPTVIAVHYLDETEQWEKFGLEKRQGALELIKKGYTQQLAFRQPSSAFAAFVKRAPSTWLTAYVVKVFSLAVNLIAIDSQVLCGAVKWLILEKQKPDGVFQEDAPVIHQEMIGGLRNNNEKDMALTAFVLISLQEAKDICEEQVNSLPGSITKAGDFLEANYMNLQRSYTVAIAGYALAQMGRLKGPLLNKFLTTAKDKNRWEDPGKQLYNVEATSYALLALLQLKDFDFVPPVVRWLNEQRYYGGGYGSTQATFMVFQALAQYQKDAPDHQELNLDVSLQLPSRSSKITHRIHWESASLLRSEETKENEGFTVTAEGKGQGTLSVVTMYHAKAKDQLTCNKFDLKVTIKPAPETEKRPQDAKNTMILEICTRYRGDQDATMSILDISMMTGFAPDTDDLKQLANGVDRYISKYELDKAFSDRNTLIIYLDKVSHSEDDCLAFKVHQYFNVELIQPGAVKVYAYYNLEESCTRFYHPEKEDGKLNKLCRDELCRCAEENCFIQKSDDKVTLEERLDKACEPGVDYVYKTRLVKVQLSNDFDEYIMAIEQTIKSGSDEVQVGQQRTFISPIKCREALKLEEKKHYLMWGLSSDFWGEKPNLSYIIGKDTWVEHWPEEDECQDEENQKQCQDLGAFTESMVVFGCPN
As for B1, the ka result was “(5.5 ± 0.15) × 10^5 M^−1s^−1” and the kd entry is “(5.1 ± 0.52) × 10^−2 s^−1”.
Taken in the same sequence, the figures for B2 were “(8.9 ± 0.15) × 10^4 M^−1s^−1” and “(5.8 ± 0.45) × 10^−1 s^−1”.
The like results for B3 were, in that order, “(7.6 ± 2.0) × 10^5 M^−1s^−1” and “(5.1 ± 0.73) × 10^−2 s^−1”.
